# Tested on: Escherichia coli TOP10
# Test: shrunken log2 fold change of peptide-encoding DNA abundance (4.5 h post-induction vs induction); higher = less antimicrobial activity (less host growth inhibition)
# Settings: time post-induction: 4.5 h; library: site-saturation at positions 5, 18, 19, 20
# 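Also: peptides expressed intracellularly from a pBAD plasmid library in pooled LB shake-flask culture, induced with 0.3% L-arabinose, DNA abundance read by NGS, three biological replicates, DESeq2 with apeglm shrinkage.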
row,Sequence,shrunken log2 fold change
1,RRIRFRPPRLPRPRPRPSSYPRP,-0.676
2,RRIRYRPPRLPRPRPRPCTNPRP,0.0527
3,RRIRERPPRLPRPRPRPWLMPRP,-0.282
4,RRIRSRPPRLPRPRPRPYHIPRP,-0.845
5,RRIRGRPPRLPRPRPRPHIGPRP,0.109
6,RRIRPRPPRLPRPRPRPVEWPRP,0.0458
7,RRIRFRPPRLPRPRPRPDKHPRP,-0.478
8,RRIRFRPPRLPRPRPRPCCHPRP,-0.415
9,RRIRFRPPRLPRPRPRPFMGPRP,-0.348
10,RRIRPRPPRLPRPRPRPMVEPRP,-0.112
11,RRIRQRPPRLPRPRPRPDTAPRP,-0.0746
12,RRIRARPPRLPRPRPRPLQSPRP,0.625
13,RRIRQRPPRLPRPRPRPPYYPRP,-0.829
14,RRIRIRPPRLPRPRPRPKYGPRP,-0.284
15,RRIRQRPPRLPRPRPRPISIPRP,-0.93
16,RRIRIRPPRLPRPRPRPTDPPRP,-0.223
17,RRIRDRPPRLPRPRPRPYLDPRP,-0.0026
18,RRIRCRPPRLPRPRPRPCPKPRP,-0.0654
19,RRIRPRPPRLPRPRPRPHEFPRP,0.253
20,RRIRARPPRLPRPRPRPSWGPRP,0.0646
21,RRIRLRPPRLPRPRPRPAYSPRP,-0.354
22,RRIRARPPRLPRPRPRPGMNPRP,-0.0966

row,Sequence,shrunken log2 fold change
1,RRIRHRPPRLPRPRPRPKRIPRP,-0.0337
2,RRIRERPPRLPRPRPRPGFVPRP,0.755
3,RRIRGRPPRLPRPRPRPVRAPRP,1.01
4,RRIRWRPPRLPRPRPRPRINPRP,0.0839
5,RRIRARPPRLPRPRPRPVQHPRP,0.555
6,RRIRCRPPRLPRPRPRPIFRPRP,-0.013
7,RRIRWRPPRLPRPRPRPPMCPRP,0.252
8,RRIRNRPPRLPRPRPRPSCEPRP,-0.229
9,RRIRTRPPRLPRPRPRPVGPPRP,-0.006
10,RRIRTRPPRLPRPRPRPYDLPRP,-0.14
11,RRIRLRPPRLPRPRPRPIRVPRP,0.101
12,RRIRQRPPRLPRPRPRPNCQPRP,-0.055
13,RRIRWRPPRLPRPRPRPYSYPRP,-0.00188
14,RRIRKRPPRLPRPRPRPGCPPRP,0.0566
15,RRIRNRPPRLPRPRPRPASAPRP,0.0499
16,RRIRTRPPRLPRPRPRPDCEPRP,0.0084
17,RRIRHRPPRLPRPRPRPIDEPRP,0.142
18,RRIRHRPPRLPRPRPRPTKRPRP,-0.0644
19,RRIRNRPPRLPRPRPRPINKPRP,-0.56
20,RRIRNRPPRLPRPRPRPIIEPRP,0.00312
21,RRIRARPPRLPRPRPRPQIFPRP,-0.0149
22,RRIRQRPPRLPRPRPRPDLNPRP,0.0947

row,Sequence,shrunken log2 fold change
1,RRIRARPPRLPRPRPRPHYQPRP,-0.459
2,RRIRIRPPRLPRPRPRPSMHPRP,-0.511
3,RRIRKRPPRLPRPRPRPPDYPRP,0.145
4,RRIRGRPPRLPRPRPRPTSTPRP,1.05
5,RRIRHRPPRLPRPRPRPPDIPRP,-0.0817
6,RRIRTRPPRLPRPRPRPLDQPRP,0.365
7,RRIRCRPPRLPRPRPRPKITPRP,-0.573
8,RRIRVRPPRLPRPRPRPSMSPRP,-0.147
9,RRIRYRPPRLPRPRPRPADNPRP,-0.938
10,RRIRNRPPRLPRPRPRPVEVPRP,-0.296
11,RRIRLRPPRLPRPRPRPPYGPRP,0.0785
12,RRIRVRPPRLPRPRPRPCYAPRP,-0.162
13,RRIRHRPPRLPRPRPRPPSNPRP,0.0232
14,RRIRKRPPRLPRPRPRPGQKPRP,0.212
15,RRIRVRPPRLPRPRPRPIMHPRP,-0.156
16,RRIRVRPPRLPRPRPRPVPVPRP,0.0573
17,RRIRPRPPRLPRPRPRPVVYPRP,-0.538
18,RRIRTRPPRLPRPRPRPKGEPRP,0.0539
19,RRIRRRPPRLPRPRPRPAGPPRP,0.446
20,RRIRMRPPRLPRPRPRPMDDPRP,0.15
21,RRIRRRPPRLPRPRPRPVWIPRP,0.148
22,RRIRDRPPRLPRPRPRPGTTPRP,0.427

row,Sequence,shrunken log2 fold change
1,RRIRFRPPRLPRPRPRPASTPRP,-0.0365
2,RRIRHRPPRLPRPRPRPIEIPRP,-0.161
3,RRIRNRPPRLPRPRPRPPSKPRP,-0.161
4,RRIRLRPPRLPRPRPRPAHYPRP,-0.147
5,RRIRCRPPRLPRPRPRPDTGPRP,-0.879
6,RRIRSRPPRLPRPRPRPCSFPRP,-0.825
7,RRIRQRPPRLPRPRPRPVKDPRP,-0.03
8,RRIRHRPPRLPRPRPRPFPFPRP,-0.758
9,RRIRFRPPRLPRPRPRPPCPPRP,0.46
10,RRIRIRPPRLPRPRPRPFQLPRP,0.0333
11,RRIRIRPPRLPRPRPRPMKFPRP,-0.387
12,RRIRMRPPRLPRPRPRPVVAPRP,0.533
13,RRIRGRPPRLPRPRPRPVYLPRP,-0.33
14,RRIRYRPPRLPRPRPRPTCFPRP,-0.222
15,RRIRPRPPRLPRPRPRPVNRPRP,-0.0842
16,RRIRGRPPRLPRPRPRPRTSPRP,0.763
17,RRIRWRPPRLPRPRPRPFDKPRP,-0.012
18,RRIRKRPPRLPRPRPRPNSEPRP,2.18
19,RRIRKRPPRLPRPRPRPQGRPRP,-0.078
20,RRIRFRPPRLPRPRPRPCCAPRP,-0.0621
21,RRIRNRPPRLPRPRPRPGTRPRP,0.00131
22,RRIRPRPPRLPRPRPRPSTMPRP,-0.297

row,Sequence,shrunken log2 fold change
1,RRIRRRPPRLPRPRPRPFTDPRP,-0.0197
2,RRIRHRPPRLPRPRPRPEWMPRP,0.188
3,RRIRTRPPRLPRPRPRPTMDPRP,-0.436
4,RRIRQRPPRLPRPRPRPKEEPRP,0.00489
5,RRIRNRPPRLPRPRPRPVEKPRP,0.143
6,RRIRRRPPRLPRPRPRPQLNPRP,0.159
7,RRIRWRPPRLPRPRPRPYCTPRP,-0.322
8,RRIRRRPPRLPRPRPRPTNDPRP,0.263
9,RRIRLRPPRLPRPRPRPPIQPRP,0.174
10,RRIRKRPPRLPRPRPRPPKWPRP,0.0966
11,RRIRARPPRLPRPRPRPPYEPRP,0.194
12,RRIRLRPPRLPRPRPRPILDPRP,-0.05
13,RRIRFRPPRLPRPRPRPNAWPRP,-0.171
14,RRIRDRPPRLPRPRPRPIKPPRP,-0.00115
15,RRIRKRPPRLPRPRPRPRAHPRP,0.68
16,RRIRERPPRLPRPRPRPFRQPRP,0.198
17,RRIRIRPPRLPRPRPRPASQPRP,-0.073
18,RRIRNRPPRLPRPRPRPTQIPRP,0.135
19,RRIRKRPPRLPRPRPRPNPAPRP,-0.000888
20,RRIRLRPPRLPRPRPRPCCVPRP,0.0472
21,RRIRTRPPRLPRPRPRPGTFPRP,-0.116

# From the supplement of paper PMC9112550, “Optimization of the antimicrobial peptide Bac7 by deep mutational scanning” (BMC Biology, 2022)
